Data from patent US7629323B2, “Manipulation of neuronal ion channels” (Northwestern University, priority 2003, dated 2009).
One block for each molecule: values may come before it.

Key:
[1] = target: T1, Kv3.4a/Kv3.1b heteromeric channels (Rattus norvegicus, UniProt P25122+Q63734); format: cell-based
T1 construct: expressed in transfected cells; host or cells: HEK293
T1 sequence (Q63734 1-625): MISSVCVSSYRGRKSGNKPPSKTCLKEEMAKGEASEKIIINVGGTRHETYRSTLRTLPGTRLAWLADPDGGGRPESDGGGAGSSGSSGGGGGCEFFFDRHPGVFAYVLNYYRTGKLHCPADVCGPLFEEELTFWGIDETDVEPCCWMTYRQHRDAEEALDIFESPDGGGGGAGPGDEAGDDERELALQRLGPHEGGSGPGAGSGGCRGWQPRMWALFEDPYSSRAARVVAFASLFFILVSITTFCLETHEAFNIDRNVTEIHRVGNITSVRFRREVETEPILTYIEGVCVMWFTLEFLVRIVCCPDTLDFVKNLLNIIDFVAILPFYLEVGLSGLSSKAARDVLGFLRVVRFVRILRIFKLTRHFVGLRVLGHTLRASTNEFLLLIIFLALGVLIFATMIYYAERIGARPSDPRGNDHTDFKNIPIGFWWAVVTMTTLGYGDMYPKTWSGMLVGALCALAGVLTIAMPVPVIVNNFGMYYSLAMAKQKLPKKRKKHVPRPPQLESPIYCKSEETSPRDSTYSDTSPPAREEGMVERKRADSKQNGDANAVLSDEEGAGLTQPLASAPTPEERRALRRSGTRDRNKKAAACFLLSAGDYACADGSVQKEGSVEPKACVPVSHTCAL
T1 sequence (P25122 1-585): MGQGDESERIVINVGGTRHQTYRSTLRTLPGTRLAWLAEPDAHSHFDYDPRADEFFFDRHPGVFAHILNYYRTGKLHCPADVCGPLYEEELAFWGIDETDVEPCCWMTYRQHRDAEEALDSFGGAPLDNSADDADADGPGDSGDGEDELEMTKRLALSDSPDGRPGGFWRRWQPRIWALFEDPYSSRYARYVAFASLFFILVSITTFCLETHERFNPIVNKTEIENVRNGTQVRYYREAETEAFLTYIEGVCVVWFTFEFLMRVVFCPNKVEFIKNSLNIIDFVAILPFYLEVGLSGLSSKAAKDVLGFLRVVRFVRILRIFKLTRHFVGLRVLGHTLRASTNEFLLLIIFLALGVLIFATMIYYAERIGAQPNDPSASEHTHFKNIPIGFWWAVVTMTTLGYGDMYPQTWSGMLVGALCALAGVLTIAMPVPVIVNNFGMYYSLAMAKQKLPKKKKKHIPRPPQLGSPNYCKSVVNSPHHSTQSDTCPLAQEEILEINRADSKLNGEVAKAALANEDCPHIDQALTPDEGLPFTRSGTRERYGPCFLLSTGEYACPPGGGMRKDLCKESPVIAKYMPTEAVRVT
Source text: Electrophysiology. Whole-cell recordings used standard techniques^27,28. The internal solution consisted of (in mM): 30-90 K2SO4, 0-60 N-methyl-D-glucamine, 2 MgCl2, 40 HEPES, 5 EGTA, 12 phosphocreatine, 2 Na2ATP, 0.2 Na3GTP, and 0.1 leupeptin, pH 7.2 with H2SO4 (osmolarity 260-270 mOsm/l). The external solution consisted of (in mM): 140 Na-isethionate, 2 KCl, 4 MgCl2, 10 HEPES, 12 glucose and 0.001 TTX, pH 7.35 with NaOH (osmolarity 295-305 mOsm/l). The internal solution for current clamp recordings consisted of (in mM) 110 potassium methylsulphate, 2 MgCl2, 40 HEPES, 5 EGTA, 12 phosphocreatine, 2 Na2ATP, 0.2 Na3GTP, and 0.1 leupeptin, pH 7.2 with H2SO4 (osmolarity 260-270 mOsm/l). In the case of current clamp recordings, TTX was omitted from external solution. For the recordings in the presence of Ca^+2 ions EGTA was omitted from internal solution and 4 mM of MgCl2 was substituted by 2 mM of CaCl2 and 2 mM of MgCl2. […] Recordings were obtained with Axon Instruments 200 patch-clamp amplifier and controlled and monitored with a PC running pClamp software (version 7.0) (Axon Instruments Inc., Union City, Calif.). […] After seal rupture, series resistance (2-10 MΩ) was compensated (75-90%) and periodically monitored. […]
Single cell RT-PCR (scRT-PCR). […] In the case of co-transfection with Kv3.4a and Kv3.1b cDNA, single cell RT-PCR was used to confirm the presence of both mRNAs in the recorded cell. […]

[2] = target: Kv3.4 protein (native, rat brain membranes / fast-spiking neurons) (rat) (UniProt Q63734); assay: cell-based or functional assay
[3] = tested on: Kv3.4 mRNA; assay: siRNA suppression of Kv3.4 mRNA in HEK293/Kv3.4 cells, real-time quantitative PCR; format: cell-based, rat; details: normalized to transfection efficiency (60%)
Experimental: For example, mammalian cells expressing the potassium channel were tested with siRNA vectors. HEK 293/Kv3.4a cells were generated by stable transfection with a linearized form of pcDNA3/Kv3.4a (Baranauskas et al., Nat Neurosci., 6:258 (2003)), and geneticin selection of a single clone. Kv3.4 expression was confirmed by quantitative PCR and Western blotting. Four target sequences were chosen (#1, #2, #3, and #4, described in more detail below). HEK293/Kv3.4 cells were transfected with these siRNA. To monitor transfection efficiency fluorescein labeled luciferase GL2-F1 siRNA (Dharmacon) was used. In transfected cells, labeled duplexes are detectable as discrete punctate cytoplasmic dots (Holen et al., Nucleic Acids Res., 30:1757 (2002)). Transfection efficiency was 60%, probably, due to high passage number.
Real-time quantitative PCR employing SYBR green fluorescence detection was used to measure Kv3.4 cDNA abundance. As a control for the non-specific effects of siRNA duplexes, siRNA targeting Kv3.1 was used. The differences in the amount of extracted RNA were taken into account by normalization to β-actin. Variability in the amplification during PCR reactions was estimated by running five PCR reactions for the same cDNA sample. […]

[4] = target: Kv3.1b (rat) (UniProt P25122); assay: cell-based or functional assay

Molecule: CC[N+](CC)(CC)CC [TEA, tetraethylammonium]
block of K+ currents in Kv3.4a/Kv3.1b co-transfected HEK293 cells [1]: blocked

Molecule: BDS-I (from UniProt P11494 1-43) (peptide)
duration of spikes in FS neurons [2]: 53%

Molecule: duplex #4: 21-nt double-stranded RNA targeting rat Kv3.4 site D, GGCAGTGTTGAGCCGAAAC (SEQ ID NO:4), position 1825-1843 (second strand not cited, further chemistry not given here; listed as Rattus rattus)
estimated suppression of the levels of Kv3.4 mRNA in the transfected cells [3]: 50%

fast inactivation time constant of K+ currents in co-transfected HEK293 cells [4]: 38 ms
mean burst duration (long bursts), single channel recording of co-transfected HEK293 cells [4]: 250 ms
mean burst duration (short bursts), single channel recording of co-transfected HEK293 cells [4]: 16.2 ms
B1: Kv3.4a (protein, rat, UniProt Q63734 1-625, looked up)
chain: T1 sequence (Q63734 1-625)
